Test results reported in the supplement of paper PMC12042874.
± gives the uncertainty stated by the source.

Experiment: amyloid nucleation score (Sup35N fusion, yeast selection) (log enrichment); library NNK2; higher = more nucleation; inactive = no reads after selection
Procedure, shortened: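 Peptides of 20 random codons, each fused to Sup35N, were expressed in psi-negative yeast. Cells were induced with 100 μM copper sulfate for 24 hours and grown 7 days at 30°C on medium lacking adenine and uracil, and plasmid inserts before and after selection were Illumina-sequenced. Nucleation scores are DiMSum log enrichments of output over input reads, centred on the mode score of non-aggregating sequences, and sequences under 100 input reads were excluded.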

| Substance | amyloid nucleation score |
| --- | --- |
| WSEHQGQPNRERWWSAAGEG | 0.984 ± 0.32 |
| WSGLFVKKNVVFRVRNGVT | -0.089 ± 1.1 |
| WSHVYSV | -0.124 ± 0.76 |
| WSYGLLWPSVKLIPACPPAS | 0.244 ± 0.42 |
| WSYGSNLPWLDKPNWHHETW | 1.2 ± 0.47 |
| WTFEFLIRVLEWRSVMFFAG | inactive |
| WTKATPH | 0.12 ± 0.29 |
| WTLTGHVRNLKLQVCMSVY | 0.789 ± 0.6 |
| WVFKCVSNKERNYISCACSM | 4.79 ± 0.063 |
| WVKENI | -0.234 ± 0.65 |
| WVNYFEGLMIPVSARN | -1.16 ± 0.76 |
| WVSGLPHNYNSSFSTAINFS | 0.907 ± 0.3 |
| WWKQWRYTGYLLLSHLSNRS | -0.087 ± 0.42 |
| WWLMWS | 0.691 ± 0.53 |
| WWQGI | -0.168 ± 1.1 |
| WWSSDS | 1.73 ± 0.078 |
| WWVPCSLYWYSAEGPGLARA | 0.007 ± 0.31 |
| WWYRLLWDKSCL | -1.06 ± 0.49 |
| WYAHGLISVCFVCAGLESLG | -0.251 ± 0.76 |
| WYERVWLAWSR | 0.66 ± 0.57 |
| WYNILLHNSAAEYLTY | -0.296 ± 0.34 |
| WYSIIREEAALSYCSSHYKN | 2.49 ± 0.15 |
| WYSYRL | -0.11 ± 0.46 |
| YAFKRECWCHYHHHCVQMFW | 0.49 ± 0.33 |
| YAFQW | 0.152 ± 0.77 |
| YAGTH | -1.72 ± 0.48 |

| Substance | amyloid nucleation score |
| --- | --- |
| YAHRTSTA | 0.342 ± 0.62 |
| YAPRCNPNRNLLNMT | 4.47 ± 0.058 |
| YATKFN | 0.058 ± 0.79 |
| YCFSVYKGVGIGKKCGYLSS | inactive |
| YCGKTIQCSRRAPTAEDLGM | 2.76 ± 0.12 |
| YCGLFKGYVYRL | -1.43 ± 0.55 |
| YCKGSS | -0.46 ± 1 |
| YCKRLKQAMPHY | -0.337 ± 0.63 |
| YCLVTRLHR | 0.185 ± 0.8 |
| YCMASLSSLNLVRHWDDESS | -1.01 ± 1.1 |
| YCRHGGNRASL | 0.783 ± 0.53 |
| YCTNFYVEAGAIGS | -0.682 ± 0.42 |
| YCTPCLW | 0.452 ± 0.66 |
| YCTSDG | 0.559 ± 0.8 |
| YCVTTVGARCLVKFHHLDSG | 2.11 ± 0.15 |
| YCYEPLTC | 0.508 ± 0.49 |
| YDEKMRVHDKYKTQPLERGR | 4.37 ± 0.1 |
| YDLLGHKAVFEGERVNW | 0.003 ± 0.4 |
| YEDSGRRKLLNGP | -0.381 ± 1.1 |
| YFIAASYCDLTYLKTIDWTG | 2.76 ± 0.067 |
| YFKMSFCSFWL | 1.91 ± 0.091 |
| YFMTKETLHC | -1.64 ± 0.54 |
| YFNSSVLILVVWLLY | inactive |
| YFRDRSFKKIILLPNWFMNT | inactive |
| YFRSCDKCGAYEANHEFKTT | inactive |
| YFRVFFFLMSIYTDKN | inactive |

| Substance | amyloid nucleation score |
| --- | --- |
| YFRYMLW | 4.16 ± 0.1 |
| YFSFFVSKVTGGWSCHVESA | -0.004 ± 0.34 |
| YFWTFTSWQTTGRCHSP | 0.521 ± 0.17 |
| YGCLNYSRWRTSAGMDTNNG | -0.794 ± 0.63 |
| YGDGGDIC | -0.612 ± 0.35 |
| YGEELE | inactive |
| YGFLCRL | inactive |
| YGKGDLGRCSLDTSTTLSDW | 0.252 ± 0.65 |
| YGLDRIFVSGSMNATMIKHN | inactive |
| YGLPYEVLFNHSHTSNRAYS | -0.532 ± 0.43 |
| YGLWVYMNWLVSLRSLLTRI | inactive |
| YGPYSLSSF | -0.105 ± 1.1 |
| YGQAMWASIFMIYRLPKTLR | -1.13 ± 0.28 |
| YGQMVLRPFDTFVARQ | -1.05 ± 0.48 |
| YGRSTHPGSRSF | -1.25 ± 0.63 |
| YGWRSRYVPCPAGRRCVMSQ | 0.53 ± 0.2 |
| YHITSSLWVDDIHVLLNMGP | 0.328 ± 0.42 |
| YHNCNQHSWYRMRCFG | -0.417 ± 1.1 |
| YHPTLVLGYQLTLLFMAFL | 0.613 ± 0.74 |
| YHRSCFWDYLISDGLKQACH | -1.51 ± 0.78 |
| YICMLLDKPRFLSRSSRSLV | inactive |
| YIELMGHWVGTSRKCVSDRS | -0.243 ± 1.1 |
| YIGCNNYEGKNKCVIFLSFS | 6.079 ± 0.05 |
| YIGQVGYRCSAVGQSYSRPG | 1.87 ± 0.47 |
| YIRIYRVTMRFNCINVAPWG | 6.928 ± 0.048 |
| YITFLVWFQNFGYTGHD | 7.162 ± 0.062 |

| Substance | amyloid nucleation score |
| --- | --- |
| YIVACSWYSGLLGLVGYRRK | 7.884 ± 0.036 |
| YKLYTFCKSRMHVPAYGFSY | -1.96 ± 1.1 |
| YKRCYIKIEWFQMCFNVVTR | inactive |
| YKVLSISLIVDTFARLYYAL | -0.921 ± 0.54 |
| YLCAFVRWWYR | -0.029 ± 1.1 |
| YLCPTSGKLCGSSGKTMVTV | -1.18 ± 0.48 |
| YLFSLKQLWF | 5.06 ± 0.078 |
| YLGRHDYKSVGGSFIPRQSK | -0.661 ± 1.1 |
| YLGTF | 0.187 ± 0.56 |
| YLIIKCDKRCVEDFDALLE | 4.4 ± 0.071 |
| YLIISMRFISSTQYRFFSVH | 0.498 ± 0.19 |
| YLPFMWCCMIWWAGGVCRL | -0.143 ± 0.76 |
| YLSTFVGTVHDSHTCRFCWN | 3.79 ± 0.13 |
| YLSTGNNMFLNVQDSQGA | 1.36 ± 0.13 |
| YLTSINLRVGGSWLCNNGRM | 1.96 ± 0.14 |
| YLVELNV | 0.344 ± 0.56 |
| YLVNNAEMVNMELMISVSGA | -0.337 ± 0.38 |
| YMERIYRWYSQCNRCQVRLW | -0.644 ± 0.54 |
| YMLTKYRYS | 0.734 ± 0.81 |
| YMSARVMFGGEPCCCGSGGE | 1.74 ± 0.27 |
| YMSATVRCIYSRLY | 3.05 ± 0.13 |
| YMSGGVRKGPIAKALNFVRS | -0.854 ± 0.56 |
| YMYDVRICPFDNWVYRRNEC | -0.107 ± 0.74 |
| YMYFRVFDS | 0.525 ± 0.34 |
| YNESVHANVYVLLILKGLES | 6.621 ± 0.048 |
| YNFGEFACYHH | 3.81 ± 0.099 |

| Substance | amyloid nucleation score |
| --- | --- |
| YNFRSSLRNGYKEVRGVQYG | 5.221 ± 0.043 |
| YNGMAHGCHVGASSRRLE | 0.117 ± 0.32 |
| YNGPLHYDRNDSSVKQSVFI | inactive |
| YNIWL | 2.49 ± 0.12 |
| YNKSSYE | -1.47 ± 1.1 |
| YNQFNFFTG | 6.913 ± 0.045 |
| YNRGMQLIAVVL | 0.725 ± 0.39 |
| YNSSCCSERSYLLSVFRISR | 0.178 ± 0.17 |
| YNSYVVRMGTI | -0.417 ± 1.1 |
| YNVMHRPGGWDFMYGNWMLG | 4.63 ± 0.063 |
| YNYVPLDFVRPVSDWSLELR | -0.405 ± 0.39 |
| YPEDEFFQHRRWKRILSWDV | inactive |
| YPITPFQA | -0.872 ± 1.1 |
| YPNLFS | 0.522 ± 0.74 |
| YPTASVTATSHTFILSSNKN | 3.48 ± 0.063 |
| YQKCTRIFQILCGSACLKTR | -0.649 ± 0.64 |
| YQLLLFV | -0.969 ± 0.41 |
| YQMISDSPNINIFYGFYSET | inactive |
| YQTYF | -1.08 ± 0.41 |
| YQVFSQLEMRTYCKGKDFTL | 4.724 ± 0.038 |
| YRFKLFTHRYILFNWVFLLL | inactive |
| YRILSNASWTFAVVQSCNPY | 5.789 ± 0.047 |
| YRINEDET | -1.55 ± 0.41 |
| YRLNVNKSSNQGV | -0.712 ± 0.45 |
| YRLYDRENSAICYISYTLLL | 2.36 ± 0.069 |
| YRMCLLRYT | -0.936 ± 0.55 |

| Substance | amyloid nucleation score |
| --- | --- |
| YRMLSIKCGM | -0.707 ± 0.79 |
| YRNCLPMGGNALS | -0.964 ± 1.1 |
| YRPITRMCSWDRNSLWWSRY | -0.582 ± 0.54 |
| YRRQPS | 0.174 ± 0.56 |
| YRRYVLTL | 0.057 ± 0.76 |
| YRSFCWEQ | -0.581 ± 0.56 |
| YRSSLRHFSVYSYNSFSELL | 0.626 ± 0.65 |
| YRVSIMYDAWDGLARWFYRR | 0.507 ± 0.46 |
| YRWVHLEFGARLAFQSVKNI | 0.241 ± 0.8 |
| YRYPRCRVRLVS | -0.822 ± 0.35 |
| YSAFHSMENQTRKMFMEPLP | -0.311 ± 0.79 |
| YSDMSFAVALAVSWVQAGAW | -0.618 ± 0.63 |
| YSENNLIG | inactive |
| YSERSTEGQ | 0.698 ± 0.26 |
| YSEWSSTRPQFRTLNHEWLL | 0.498 ± 0.74 |
| YSISNPYACFSNVQSFLLYN | 2.65 ± 0.15 |
| YSKTLERVDSSVD | 1.26 ± 0.38 |
| YSLFTT | -0.451 ± 0.76 |
| YSLLCWVYIRSLNSLNKCCG | 3.15 ± 0.075 |
| YSLTYLAFSFQKNNTIFLTY | 0.358 ± 0.65 |
| YSMVIY | -0.014 ± 0.76 |
| YSMWGYCISPNKHVYFTHGR | -0.421 ± 0.78 |
| YSRTQENNAGLSYIACTGRR | 0.168 ± 0.56 |
| YSSNGPGEKWRYR | 2.04 ± 0.09 |
| YSYRVRI | 3.71 ± 0.056 |
| YTMASLS | 1.74 ± 0.13 |

| Substance | amyloid nucleation score |
| --- | --- |
| YTNAFRPRSVRLTVIRIGQY | 4.07 ± 0.11 |
| YTRKVSAG | -0.063 ± 0.36 |
| YTRNIHMHFHRMLPNVGMAF | inactive |
| YTYSHAYPRWTMFIWWHDLE | -0.378 ± 0.31 |
| YTYTQTR | 0.25 ± 0.48 |
| YVAILFRFRRSIMFNLLIQM | -0.318 ± 0.8 |
| YVCCR | 0.565 ± 0.46 |
| YVDVGC | 0.513 ± 0.52 |
| YVEFCFLTCSASGLAWSLRW | 0.053 ± 0.31 |
| YVFLEGFNRVFDHVACIGLK | -0.721 ± 0.35 |
| YVGEKRGSVSEYLLHLLSTG | inactive |
| YVGHRTMMKFTIIVIYYMYP | -1.5 ± 1 |
| YVKSRHTNYDGRSTLL | 3.12 ± 0.13 |
| YVKVVFCFDLAAMTSRRFYE | 0.228 ± 1 |
| YVLELKG | 2.75 ± 0.062 |
| YVLSRDRSWIHGGVGELGAW | 0.969 ± 0.53 |
| YVNVL | 0.479 ± 0.49 |
| YVPPIGGNRHAHLVASCLGS | 0.434 ± 0.21 |
| YVQRNNARVTLGGTHSFRSV | 3.83 ± 0.068 |
| YVSHLMFKVSGLPWLGRCNY | 4.78 ± 0.087 |
| YVTVTNGMI | -0.447 ± 0.61 |
| YVVSQTVRWF | inactive |
